From patent US20040151721A1 (Takeda / Millennium, published 2004)
Values joined by “and” are separate entries in the source; they are usually repeats but may differ in a detail not shown here. Equal entries are not always repeated.

Experiments:
[1] = target: T1, human CCR2, endogenous on THP-1 cells / THP-1 cell membranes, fresh PBMC and whole blood cells (human, UniProt P41597 1-374); assay: inhibition of 0.1 nM [125I]MCP-1 binding to THP-1 cell membranes, filtration and scintillation counting
T1 construct: whole, on cells; Native receptor; It was used on whole cells and as a THP-1 membrane preparation; The splice form is not specified for THP-1; also called CCR2b (on blood cells)
Method: The amount of bound tracer was determined by separation of free from bound by filtration and scintillation counting. The data was analyzed to determine the IC50 value by non-linear regression using a 4-parameter logistic equation with KaleidaGraph software.
(§1) Competition binding experiments were performed by including variable concentrations of unlabeled MCP-1, 1D9 antibody, or a negative control IgG2a. Nonspecific binding was determined following the addition of a 2500-fold excess of unlabeled MCP-1. Samples were incubated for 60 minutes at room temperature, and bound and free tracer were separated by filtration through 96-well GF/B filterplates presoaked in 0.3% polyethyleneimine.

[2] = target: T1, human CCR2, endogenous on THP-1 cells / …; assay: inhibition of 0.1 nM [125I]MCP-1 binding to fresh PBMC, filtration and scintillation counting
Method: The amount of bound tracer was determined by separation of free from bound by filtration and scintillation counting. The data was analyzed to determine the IC50 value as for FIG. 4.
as §1

[3] = target: T2, CCR5 expressed on L1/2 transfectants (UniProt P51681 1-352, limits assumed); assay: flow cytometry on L1/2 transfectants, hybridoma supernatant
T2 construct: whole, on cells; also called CCR5 transfectants
Method: (§2) For the staining of cultured transfectant cell lines 0.5×10^6 cells in 50 μl were resuspended in PBS+1% FCS in a 96 well polystyrene V-bottom plate. 50 μl of primary antibody supernatants or HT medium (negative control) were added, and the samples were incubated at 4° C. for 30 min. 100 μl of PBS were added and the cells were pelleted by centrifugation and washed once with PBS. The pellet was resuspended in 100 μl PBS+1% FCS containing FITC-conjugated goat anti-mouse IgG antibody (a 1:250 dilution) and incubated for thirty minutes at 4° C. in the dark. The cells were washed twice with PBS, resuspended in PBS, and analyzed by flow cytrometry with a FacScan cytometer using the CellQuest software (Becton-Dickenson) Cells were fixed with PBS/1% formaldehyde if they were not to be analyzed the same day. Monoclonal antibodies 1D9 and 8G2 stain CCR2 transfectants but not CCR1 or CCR5 transfectants (FIG. 1).

[4] = target: T3, CCR1 expressed on L1/2 transfectants (UniProt P32246 1-355, limits assumed); assay: as above
T3 construct: whole, on cells; also called CCR1 transfectants
T3 sequence (looked up): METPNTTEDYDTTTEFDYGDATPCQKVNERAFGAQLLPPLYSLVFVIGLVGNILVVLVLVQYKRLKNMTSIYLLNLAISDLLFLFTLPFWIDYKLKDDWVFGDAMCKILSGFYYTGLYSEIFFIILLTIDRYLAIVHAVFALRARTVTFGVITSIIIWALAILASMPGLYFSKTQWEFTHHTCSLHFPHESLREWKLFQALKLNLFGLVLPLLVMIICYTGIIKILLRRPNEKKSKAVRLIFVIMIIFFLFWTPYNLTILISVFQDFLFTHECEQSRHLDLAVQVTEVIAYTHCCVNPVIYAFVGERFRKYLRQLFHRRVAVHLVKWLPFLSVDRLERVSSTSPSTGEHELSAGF
Method: as §2

T1 sequence (P41597 whole entry, canonical isoform): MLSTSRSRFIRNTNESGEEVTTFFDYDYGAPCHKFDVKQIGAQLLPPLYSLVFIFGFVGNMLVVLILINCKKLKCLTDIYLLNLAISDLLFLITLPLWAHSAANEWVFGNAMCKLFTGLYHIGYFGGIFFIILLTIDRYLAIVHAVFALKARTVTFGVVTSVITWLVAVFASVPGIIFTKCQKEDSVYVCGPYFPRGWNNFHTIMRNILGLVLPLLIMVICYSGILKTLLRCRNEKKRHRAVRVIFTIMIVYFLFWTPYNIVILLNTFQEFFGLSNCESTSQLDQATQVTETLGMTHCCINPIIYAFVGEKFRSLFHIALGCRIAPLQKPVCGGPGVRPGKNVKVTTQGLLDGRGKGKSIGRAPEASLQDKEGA
T2 sequence (P51681 whole entry): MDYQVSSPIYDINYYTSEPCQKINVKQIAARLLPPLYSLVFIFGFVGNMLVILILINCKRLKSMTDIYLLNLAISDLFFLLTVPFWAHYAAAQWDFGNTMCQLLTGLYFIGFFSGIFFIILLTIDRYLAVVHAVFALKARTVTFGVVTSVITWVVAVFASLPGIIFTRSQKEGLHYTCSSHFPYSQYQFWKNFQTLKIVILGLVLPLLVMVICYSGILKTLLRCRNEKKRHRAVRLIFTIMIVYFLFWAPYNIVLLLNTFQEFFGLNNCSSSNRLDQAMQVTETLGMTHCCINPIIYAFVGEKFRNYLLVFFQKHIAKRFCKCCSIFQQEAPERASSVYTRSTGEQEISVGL

B1: murine monoclonal antibody LS132.1D9 (1D9) (antibody, V domains shown)
VH: EVQLVESGGGLVQPKGSLKLSCAASGFSFNAYAMNWVRQAPGKGLEWVARIRTKNNNYATYYADSVKDRYTISRDDSESMLFLQMNNLKTEDTAMYYCVTFYGNGVWGTGTTVTVSS
VL: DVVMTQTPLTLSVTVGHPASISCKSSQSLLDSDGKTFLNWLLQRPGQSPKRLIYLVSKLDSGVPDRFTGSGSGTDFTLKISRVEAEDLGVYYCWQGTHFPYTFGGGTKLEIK
notes: Mouse hybridoma antibody with a kappa light chain; The controls used were murine IgG2a and an 'isotype-matched' antibody, so IgG2a is implied; It was used as hybridoma supernatant in FACS; also called mAb 1D9; mus-1D9
Which results are given for B1?
IC50 [1]: ~0.004 µg/mL and ~0.02 nM; IC50 [2]: 0.04 µg/mL and ~0.2 nM; binding result [3]: no binding; binding result [4]: no binding
